Assay results: US20110282030A1 (MAYO FOUNDATION FOR MEDICAL EDUCATION AND RESEARCH, published 2011)
Where no end group is shown, it is not given here.

T1: human NPR-C (human, UniProt P17342 27-541)
T1 construct: whole, on cells; also called clearance receptor
T1 sequence: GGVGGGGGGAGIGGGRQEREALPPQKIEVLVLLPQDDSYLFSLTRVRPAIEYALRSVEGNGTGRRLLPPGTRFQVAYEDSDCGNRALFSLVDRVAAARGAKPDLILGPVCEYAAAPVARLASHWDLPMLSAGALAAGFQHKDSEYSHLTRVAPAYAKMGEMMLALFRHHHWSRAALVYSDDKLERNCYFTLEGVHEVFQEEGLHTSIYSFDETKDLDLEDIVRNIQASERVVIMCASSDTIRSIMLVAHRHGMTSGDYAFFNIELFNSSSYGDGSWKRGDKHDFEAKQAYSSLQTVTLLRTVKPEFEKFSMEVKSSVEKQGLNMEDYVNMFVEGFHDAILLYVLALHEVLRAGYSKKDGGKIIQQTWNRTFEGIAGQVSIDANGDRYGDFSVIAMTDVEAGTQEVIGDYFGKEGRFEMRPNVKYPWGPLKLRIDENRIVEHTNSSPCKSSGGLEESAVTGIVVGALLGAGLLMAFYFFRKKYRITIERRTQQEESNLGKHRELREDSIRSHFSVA

T2: human NPR-A (human, UniProt P16066 33-1061)
T2 construct: whole, on cells; also called hNPR-A; hNPRA
T2 sequence: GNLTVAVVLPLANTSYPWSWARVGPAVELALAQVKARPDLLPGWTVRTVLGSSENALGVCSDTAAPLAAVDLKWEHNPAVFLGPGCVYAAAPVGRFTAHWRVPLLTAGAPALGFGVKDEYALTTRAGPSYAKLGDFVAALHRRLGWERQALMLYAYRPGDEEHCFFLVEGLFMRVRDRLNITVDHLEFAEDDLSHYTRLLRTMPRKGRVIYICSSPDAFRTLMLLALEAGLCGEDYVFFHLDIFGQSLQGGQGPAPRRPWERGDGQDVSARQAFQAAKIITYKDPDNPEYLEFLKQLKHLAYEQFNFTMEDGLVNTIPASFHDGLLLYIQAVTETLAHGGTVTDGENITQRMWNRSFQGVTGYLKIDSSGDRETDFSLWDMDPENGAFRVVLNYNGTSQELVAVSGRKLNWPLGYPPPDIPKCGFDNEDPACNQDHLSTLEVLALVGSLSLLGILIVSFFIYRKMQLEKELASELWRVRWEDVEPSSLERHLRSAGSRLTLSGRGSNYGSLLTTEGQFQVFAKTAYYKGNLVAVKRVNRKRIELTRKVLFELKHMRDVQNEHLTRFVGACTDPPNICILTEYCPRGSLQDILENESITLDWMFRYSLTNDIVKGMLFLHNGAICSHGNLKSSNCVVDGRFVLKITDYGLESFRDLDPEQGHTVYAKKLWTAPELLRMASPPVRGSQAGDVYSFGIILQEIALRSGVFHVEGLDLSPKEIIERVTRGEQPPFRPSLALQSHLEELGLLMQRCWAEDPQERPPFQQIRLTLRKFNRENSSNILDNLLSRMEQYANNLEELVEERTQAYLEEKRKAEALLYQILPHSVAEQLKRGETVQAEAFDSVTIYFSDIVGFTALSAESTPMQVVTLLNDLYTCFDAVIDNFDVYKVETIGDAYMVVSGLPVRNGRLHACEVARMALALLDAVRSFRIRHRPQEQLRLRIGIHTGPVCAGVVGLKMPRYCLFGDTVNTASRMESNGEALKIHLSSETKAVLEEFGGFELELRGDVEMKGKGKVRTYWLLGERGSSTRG

T3: human NPR-B (human, UniProt P20594 23-1047)
T3 sequence: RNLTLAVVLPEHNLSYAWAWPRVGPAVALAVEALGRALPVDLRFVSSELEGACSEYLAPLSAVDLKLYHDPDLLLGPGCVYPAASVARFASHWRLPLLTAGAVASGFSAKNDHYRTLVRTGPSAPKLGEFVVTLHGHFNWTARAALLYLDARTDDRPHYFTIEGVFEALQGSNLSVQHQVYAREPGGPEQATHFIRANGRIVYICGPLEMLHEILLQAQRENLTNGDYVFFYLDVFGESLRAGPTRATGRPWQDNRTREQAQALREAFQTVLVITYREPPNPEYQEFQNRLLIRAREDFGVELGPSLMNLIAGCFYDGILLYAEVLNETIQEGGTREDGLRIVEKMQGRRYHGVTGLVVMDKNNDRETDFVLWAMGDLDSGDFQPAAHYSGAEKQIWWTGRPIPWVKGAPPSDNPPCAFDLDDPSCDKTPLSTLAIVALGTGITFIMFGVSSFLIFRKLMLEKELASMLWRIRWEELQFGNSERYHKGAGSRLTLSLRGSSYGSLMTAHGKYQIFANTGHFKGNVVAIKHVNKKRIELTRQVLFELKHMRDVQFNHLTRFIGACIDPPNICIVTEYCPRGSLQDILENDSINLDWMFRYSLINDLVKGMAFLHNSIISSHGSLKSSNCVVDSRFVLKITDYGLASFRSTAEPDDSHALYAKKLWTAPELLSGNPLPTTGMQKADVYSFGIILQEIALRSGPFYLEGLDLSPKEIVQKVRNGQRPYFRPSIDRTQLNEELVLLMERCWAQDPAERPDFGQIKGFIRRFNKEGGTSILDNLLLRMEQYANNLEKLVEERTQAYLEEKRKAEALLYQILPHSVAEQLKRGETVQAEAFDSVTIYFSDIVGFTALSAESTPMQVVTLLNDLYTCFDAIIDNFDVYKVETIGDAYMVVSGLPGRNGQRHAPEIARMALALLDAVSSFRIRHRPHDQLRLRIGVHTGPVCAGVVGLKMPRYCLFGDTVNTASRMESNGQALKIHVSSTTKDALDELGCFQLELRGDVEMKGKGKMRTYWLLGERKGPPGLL


Tests used:
human NPR-C = molecular target: T1, human NPR-C; assay: displacement of ^125I-ANP from NPR-C
human NPR-A [1] = molecular target: T2, human NPR-A; assay: competition ^125I-ANP binding on whole 293 cells expressing hNPR-A
human NPR-B = molecular target: T3, human NPR-B; assay: cell-based or functional assay
human NPR-A [2] = molecular target: T2, human NPR-A; assay: not told; no binding experiment of DNP on NPR-A is described

Binder | binding result (human NPR-C) | binding result (human NPR-A [1]) | EC50, cellular cGMP elevation in 293 cells expressing hNPR-B (human NPR-B) [nM] | binding result (human NPR-A [2])
GLSKGCFGLKLDRIGSMSGLGC (ligand) [Human CNP] | binds | no binding (tested: 10 µM) | 38 | –
SLRRSSCFGGRMDRIGAQSGLGCNSFRY (ligand) [Human ANP] | binds | – | – | –
EVKYDPCFGHKIDRINHVSNLGCPSLRDPRPNAPSTSA (ligand, ends and bridges not checked; cysteine pairing not given here, also called snake DNP polypeptide) [DNP] | – | – | – | binds
